Measured values reported in the RNAGym collection of RNA variant scans (doi:10.1093/molbev/msab373).

B1: Azoarcus group I ribozyme (parent)
chain: GUGCCUUGCGCCGGGAAACCACGCAAGGGAUGGUGUCAAAUUCGGCGAAACCUAAGCGCCCGCCCGGGCGUAUGGCAACGCCGAGCCAAGCUUCGGCGCCUGCGCCGAUGAAGGUGUAGAGACUAGACGGCACCCACCUAAGGCAAACGCUAUGGUGAAGGCAUAGUCCAGGGAGUGGCGAAAGUCACACAAACCGG

Variants of: B1
Assay: reverse-splicing fitness (ratio to wild type); higher = more active; in vitro selection; Mg2+ level not given
In short: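 An in vitro group I ribozyme library with randomized positions was T7-transcribed and gel-purified. In triplicate, 10 pmol RNA in EPPS pH 7.5 was reacted with 50 pmoles of a 30-nt RNA substrate for 1 h at 37 °C across several added MgCl2 levels (1–48 mM), then stopped with EDTA. Products were reverse transcribed from a substrate-complementary primer, PCR-amplified and sequenced (HiSeq 4000). Fitness is a variant's read proportion after selection over that before, normalised to wild type.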

| Variant | reverse-splicing fitness |
| --- | --- |
| GUGCCUUGCGCCGGGAAACCACGCAAGGGAUGGUGUCAAAUUCGGCGAAACCUAAGCGCCCGCCCGGGCGUAUGGCAACGCAGAGCCAAGCUUCGGCGCCUGCGCCGAUGCAGGUGUAGAGACUAGACGGCACCCACCUAAGGCCAACGAUAUGGUGAAGGCAUAGUCCAGGGAGGGGCGAAAGUCACACAAACCGG [C82A A111C A145C C150A U176G] | 0.00856 |
| GUGCCUUGCGCCGGGAAACCACGCAAGGGAUGGUGUCAAAUUCGGCGAAACCUAAGCGCCCGCCCGGGCGUAUGGCAACGCAGAGCCAAGCUUCGGCGCCUGCGCCGAUGCAGGUGUAGAGACUAGACGGCACCCACCUAAGGCCAACGAUAUGGUGAAGGCAUAGUCCAGGGAGAGGCGAAAGUCACACAAACCGG [C82A A111C A145C C150A U176A] | 0.0105 |
| GUGCCUUGCGCCGGGAAACCACGCAAGGGAUGGUGUCAAAUUCGGCGAAACCUAAGCGCCCGCCCGGGCGUAUGGCAACGCAGAGCCAAGCUUCGGCGCCUGCGCCGAUGCAGGUGUAGUGACUAGACGGCACCCACCUAAGGCAAACGCUAUGGUGAAGGCAUAGUCGAGGGAGGGGCGAAAGUCACACAAACCGG [C82A A111C A120U C169G U176G] | 0.00234 |
| GUGCCUUGCGCCGGGAAACCACGCAAGGGAUGGUGUCAAAUUCGGCGAAACCUAAGCGCCCGCCCGGGCGUAUGGCAACGCAGAGCCAAGCUUCGGCGCCUGCGCCGAUGCAGGUGUAGUGACUAGACGGCACCCACCUAAGGCAAACGCUAUGGUGAAGGCAUAGUCGAGGGAGAGGCGAAAGUCACACAAACCGG [C82A A111C A120U C169G U176A] | 0.00421 |
| GUGCCUUGCGCCGGGAAACCACGCAAGGGAUGGUGUCAAAUUCGGCGAAACCUAAGCGCCCGCCCGGGCGUAUGGCAACGCAGAGCCAAGCUUCGGCGCCUGCGCCGAUGCAGGUGUAGUGACUAGACGGCACCCACCUAAGGCAAACGCUAUGGUGAAGGCAUAGUCGAGGGAGCGGCGAAAGUCACACAAACCGG [C82A A111C A120U C169G U176C] | 0.00315 |
| GUGCCUUGCGCCGGGAAACCACGCAAGGGAUGGUGUCAAAUUCGGCGAAACCUAAGCGCCCGCCCGGGCGUAUGGCAACGCAGAGCCAAGCUUCGGCGCCUGCGCCGAUGCAGGUGUAGAGACUAGACGGCACCCACCUAAGGCCAACGAUAUGGUGAAGGCAUAGUCAAGGGAGGGGCGAAAGUCACACAAACCGG [C82A A111C A145C C150A C169A U176G] | 0.0103 |
| GUGCCUUGCGCCGGGAAACCACGCAAGGGAUGGUGUCAAAUUCGGCGAAACCUAAGCGCCCGCCCGGGCGUAUGGCAACGCAGAGCCAAGCUUCGGCGCCUGCGCCGAUGCAGGUGUAGAGACUAGACGGCACCCACCUAAGGCCAACGAUAUGGUGAAGGCAUAGUCAAGGGAGCGGCGAAAGUCACACAAACCGG [C82A A111C A145C C150A C169A U176C] | 0.0113 |
| GUGCCUUGCGCCGGGAAACCACGCAAGGGAUGGUGUCAAAUUCGGCGAAACCUAAGCGCCCGCCCGGGCGUAUGGCAACGCAGAGCCAAGCUUCGGCGCCUGCGCCGAUGCAGGUGUAGAGACUAGACGGCACCCACCUAAGGCCAACGAUAUGGUGAAGGCAUAGUCAAGGGAGAGGCGAAAGUCACACAAACCGG [C82A A111C A145C C150A C169A U176A] | 0.015 |
| GUGCCUUGCGCCGGGAAACCACGCAAGGGAUGGUGUCAAAUUCGGCGAAACCUAAGCGCCCGCCCGGGCGUAUGGCAACGCAGAGCCAAGCUUCGGCGCCUGCGCCGAUGCAGGUGUAGUGACUAGACGGCACCCACCUAAGGCAAACGCUAUGGUGAAGGCAUAGUCUAGGGAGCGGCGAAAGUCACACAAACCGG [C82A A111C A120U C169U U176C] | 0.00626 |
| GUGCCUUGCGCCGGGAAACCACGCAAGGGAUGGUGUCAAAUUCGGCGAAACCUAAGCGCCCGCCCGGGCGUAUGGCAACGCAGAGCCAAGCUUCGGCGCCUGCGCCGAUGCAGGUGUAGUGACUAGACGGCACCCACCUAAGGCAAACGCUAUGGUGAAGGCAUAGUCUAGGGAGAGGCGAAAGUCACACAAACCGG [C82A A111C A120U C169U U176A] | 0.00613 |
| GUGCCUUGCGCCGGGAAACCACGCAAGGGAUGGUGUCAAAUUCGGCGAAACCUAAGCGCCCGCCCGGGCGUAUGGCAACGCAGAGCCAAGCUUCGGCGCCUGCGCCGAUGCAGGUGUAGUGACUAGACGGCACCCACCUAAGGCAAACGCUAUGGUGAAGGCAUAGUCUAGGGAGGGGCGAAAGUCACACAAACCGG [C82A A111C A120U C169U U176G] | 0.00199 |
| GUGCCUUGCGCCGGGAAACCACGCAAGGGAUGGUGUCAAAUUCGGCGAAACCUAAGCGCCCGCCCGGGCGUAUGGCAACGCAGAGCCAAGCUUCGGCGCCUGCGCCGAUGCAGGUGUAGUGACUAGACGGCACCCACCUAAGGCAAACGCUAUGGUGAAGGCAUAGUCAAGGGAGGGGCGAAAGUCACACAAACCGG [C82A A111C A120U C169A U176G] | 0.00184 |
| GUGCCUUGCGCCGGGAAACCACGCAAGGGAUGGUGUCAAAUUCGGCGAAACCUAAGCGCCCGCCCGGGCGUAUGGCAACGCAGAGCCAAGCUUCGGCGCCUGCGCCGAUGCAGGUGUAGUGACUAGACGGCACCCACCUAAGGCAAACGCUAUGGUGAAGGCAUAGUCCAGGGAGAGGCGAAAGUCACACAAACCGG [C82A A111C A120U U176A] | 0.00732 |
| GUGCCUUGCGCCGGGAAACCACGCAAGGGAUGGUGUCAAAUUCGGCGAAACCUAAGCGCCCGCCCGGGCGUAUGGCAACGCAGAGCCAAGCUUCGGCGCCUGCGCCGAUGCAGGUGUAGUGACUAGACGGCACCCACCUAAGGCAAACGCUAUGGUGAAGGCAUAGUCCAGGGAGCGGCGAAAGUCACACAAACCGG [C82A A111C A120U U176C] | 0.0115 |
| GUGCCUUGCGCCGGGAAACCACGCAAGGGAUGGUGUCAAAUUCGGCGAAACCUAAGCGCCCGCCCGGGCGUAUGGCAACGCAGAGCCAAGCUUCGGCGCCUGCGCCGAUGCAGGUGUAGUGACUAGACGGCACCCACCUAAGGCAAACGCUAUGGUGAAGGCAUAGUCCAGGGAGGGGCGAAAGUCACACAAACCGG [C82A A111C A120U U176G] | 0.00382 |
